The target of assay [1] is tEGFR-ω fusion (extracellular and transmembrane regions of the EGF receptor fused to the ω fragment). Kind of assay: cell-based or functional assay.
Assay [2] has as its target ω-NLS (ω fragment fused to a triplet SV40 nuclear localization signal). Kind of assay: cell-based or functional assay.

tEGFR-ω fusion (extracellular and transmembrane regions of the EGF receptor fused to the ω fragment), sequence (P00722 other isoform, or with tags, fused parts or gaps): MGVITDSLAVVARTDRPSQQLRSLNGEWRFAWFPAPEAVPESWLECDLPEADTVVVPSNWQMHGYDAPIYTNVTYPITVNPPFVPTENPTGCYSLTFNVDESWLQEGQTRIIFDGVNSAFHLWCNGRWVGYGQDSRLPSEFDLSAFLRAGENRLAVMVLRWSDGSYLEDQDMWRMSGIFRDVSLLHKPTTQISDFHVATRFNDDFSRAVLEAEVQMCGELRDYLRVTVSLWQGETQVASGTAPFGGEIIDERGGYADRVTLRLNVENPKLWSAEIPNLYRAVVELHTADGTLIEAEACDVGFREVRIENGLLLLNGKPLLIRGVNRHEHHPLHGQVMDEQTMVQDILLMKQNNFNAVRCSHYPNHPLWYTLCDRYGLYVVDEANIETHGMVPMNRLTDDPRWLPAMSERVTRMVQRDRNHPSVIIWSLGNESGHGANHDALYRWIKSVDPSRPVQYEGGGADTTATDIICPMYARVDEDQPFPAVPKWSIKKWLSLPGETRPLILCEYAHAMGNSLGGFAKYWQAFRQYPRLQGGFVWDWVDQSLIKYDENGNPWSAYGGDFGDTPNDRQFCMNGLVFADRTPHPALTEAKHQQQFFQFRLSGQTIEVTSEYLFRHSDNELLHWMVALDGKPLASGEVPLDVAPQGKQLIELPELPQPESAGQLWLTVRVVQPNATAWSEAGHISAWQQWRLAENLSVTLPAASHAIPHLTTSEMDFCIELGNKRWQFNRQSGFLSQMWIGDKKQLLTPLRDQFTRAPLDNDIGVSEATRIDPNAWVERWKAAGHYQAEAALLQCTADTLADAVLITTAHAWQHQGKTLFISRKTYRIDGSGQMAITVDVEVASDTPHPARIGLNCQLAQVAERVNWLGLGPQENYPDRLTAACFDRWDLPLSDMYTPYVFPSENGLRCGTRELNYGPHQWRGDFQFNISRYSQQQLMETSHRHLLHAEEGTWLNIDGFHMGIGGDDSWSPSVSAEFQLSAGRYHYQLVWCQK
ω-NLS (ω fragment fused to a triplet SV40 nuclear localization signal), sequence (P00722 other isoform, or with tags, fused parts or gaps): as above

With “NES-GFP-α-NLS protein (MEK nuclear export signal, GFP, α peptide, triplet SV40 NLS) (from UniProt P42212 1-238)”, the β-galactosidase activity after leptomycin B (loss of signal assay) (fold decrease) in assay [1] turned out to be 5. Moreover, the β-galactosidase activity after leptomycin B for 2 hours (gain of signal assay, luminescent substrate) (fold increase) in assay [2] is 3.5.

In turn, “C1A domain of PKCγ fused to the GFP-α H31R point mutant (from UniProt P42212 1-238)” had a fold induction of β-galactosidase activity on PMA (NIH 3T3 cells, membrane translocation assay) (fold induction) in assay [1] of 7.

In assay [1], “PH domain of AKT fused to the GFP-α chimera (from UniProt P42212 1-238)” yielded an increase in β-galactosidase activity on PDGF, luminescent assay in 3T3 cells of 5 fold; an increase in β-galactosidase activity on insulin, luminescent assay in 3T3 cells of 2.5 fold; an increase in β-galactosidase activity on osmotic shock (sorbitol), luminescent assay in 3T3 cells of 8 fold.

Regarding “C1A domain of PKCγ fused to GFP-α (wild type α peptide) (from UniProt P42212 1-238)”, in assay [1], the increase in β-galactosidase activity on PMA (NIH 3T3 cells, membrane translocation assay) was less than 10 % increase.

In assay [1], “glucocorticoid receptor fused to the amino-terminus of the GFP-α fusion (from UniProt P42212 1-238)” yielded a change in β-galactosidase activity with dexamethasone, DDAO substrate, flow cytometry of live cells of 5 to 10 fold change; a difference in β-galactosidase activity at 30 min of dexamethasone (loss of signal assay) of 25%; a β-galactosidase activity after 1 µM dexamethasone for 3 hours (loss of signal assay) of 5 fold. In assay [2], this substance gave a change in β-galactosidase activity with dexamethasone, DDAO substrate, flow cytometry of live cells of 5 to 10 fold change; a difference in β-galactosidase activity at 30 min of dexamethasone (gain of signal assay) of 100%; a β-galactosidase activity after 1 µM dexamethasone for 3 hours (gain of signal assay) (fold induction) of 3.5.

The values above are taken from patent publication US20050287522A1.
